According to the supplement of paper PMC7877785:
± gives the uncertainty stated by the source.

Test: self-splicing fitness, log relative to wild type (ln ratio); higher = more splicing; Tetrahymena group I intron in knt gene, E. coli kanamycin selection, DiMSum; sequences stand for … in CUCUCU…GGAGGGAAAAGUUAUCAGGCAUGCACCUGGUAGCUAGUCUUUAAACCAAUAGAUUGCAUCGGUUUAAAAGGCAAGACCGUCAAAUUGCGGGAAAGGGGUCAACAGCCGUUCAGUACCAAGUCUCAGGGGAAACUUUGAGAUGGCCUUGCAAAGGGUAUGGUAAUAAGCUGACGGACAUGGUCCUAACCACGCAGCCAAGUCCUAAGUCAACAGAUCUUCUGUUGAUAUGGAUGCAGUUCACAGACUAAAUGUCGGUCGGGGAAGAUGUAUUCUUCUCAUAAGAUAUAGUCGGACCUCUCCUUAAUGGGAGCUAGCGGAUGAAGUGAUGCAACACUGGAGCCGCUGGGAACUAAUUUGUAUGCGAAAGUAUAUUGAUUAGUUUUGGAGUACUCGUGGUCG
Outline: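 The eight P1ex-region nucleotides of an intron in the knt kanamycin-resistance gene on pET-22b(+) were all randomised and the library put into E. coli BL21(DE3). Six replicate transformations were grown overnight at 37°C or 30°C on LB agar with or without 25 μg/mL kanamycin, together with 100 μg/mL carbenicillin, 50 μM IPTG and 0.2% rhamnose. Colonies were pooled and amplicon-sequenced on an Illumina HiSeq 2500. Fitness from DiMSum is the error-weighted combination of wild-type-normalised replicate fold changes, kanamycin over none.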

Sequence | self-splicing fitness (ln) (37 °C) | self-splicing fitness (ln) (30 °C)
CGGAAGCAAUAUUACGACGC | -0.637 ± 0.37 | 
CGGAAGCAAUAUUACGACUU | 0.261 ± 0.089 | -1.28 ± 0.084
CGGAAGCAAUAUUACGAGGU | -2.42 ± 0.35 | -4.22 ± 0.39
CGGAAGCAAUAUUACGAUCU | -0.942 ± 0.15 | -1.11 ± 0.12
CGGAAGCAAUAUUACGCUAU | -2.13 ± 0.2 | -3.66 ± 0.25
CGGAAGCAAUAUUACGGAUA | -1.81 ± 0.18 | -3.36 ± 0.41
CGGAAGCAAUAUUACGGCAU | -1.55 ± 0.3 | -3.02 ± 0.34
CGGAAGCAAUAUUACGGCGA |  | -0.522 ± 0.3
CGGAAGCAAUAUUACGGCUC | -2.51 ± 0.24 | -4.04 ± 0.25
CGGAAGCAAUAUUACGGCUG | -1.36 ± 0.099 | -1.79 ± 0.094
CGGAAGCAAUAUUACGGGUA | -2.07 ± 0.14 | -3.4 ± 0.23
CGGAAGCAAUAUUACGGUAU | -1.95 ± 0.098 | -4.04 ± 0.16
CGGAAGCAAUAUUACGGUCU | -0.791 ± 0.099 | -1.38 ± 0.074
CGGAAGCAAUAUUACGUAAG | 0.241 ± 0.1 | -0.619 ± 0.072
CGGAAGCAAUAUUACGUACU | -0.296 ± 0.096 | -0.218 ± 0.071
CGGAAGCAAUAUUACGUAUC | -2.81 ± 0.22 | -3.82 ± 0.21
CGGAAGCAAUAUUACGUCAA | -3.55 ± 0.42 | 
CGGAAGCAAUAUUACGUCGU | -2.21 ± 0.36 | 
CGGAAGCAAUAUUACGUGGG | -2.85 ± 0.18 | -3.23 ± 0.13
CGGAAGCAAUAUUACGUUAC | -2.57 ± 0.2 | 
CGGAAGCAAUAUUACGUUAG | -0.697 ± 0.077 | -1.41 ± 0.061
CGGCAGCAAUAUUACGAAAC | -2.93 ± 0.25 | -3.19 ± 0.33

Sequence | self-splicing fitness (ln) (37 °C) | self-splicing fitness (ln) (30 °C)
CGGCAGCAAUAUUACGAAAU | -2.76 ± 0.33 | -3.82 ± 0.33
CGGCAGCAAUAUUACGAACU | -0.121 ± 0.34 | -1.15 ± 0.44
CGGCAGCAAUAUUACGAUCA | -0.194 ± 0.11 | -1.08 ± 0.11
CGGCAGCAAUAUUACGAUGC | -1.6 ± 0.32 | -3.41 ± 0.29
CGGCAGCAAUAUUACGAUGG | -0.741 ± 0.093 | -0.549 ± 0.083
CGGCAGCAAUAUUACGCAGC | -1.71 ± 0.2 | -3.98 ± 0.34
CGGCAGCAAUAUUACGCAGG | -1.33 ± 0.12 | -2.02 ± 0.093
CGGCAGCAAUAUUACGCCAU | -1.6 ± 0.16 | -3.11 ± 0.2
CGGCAGCAAUAUUACGCCGU | -2.29 ± 0.19 | -3.6 ± 0.29
CGGCAGCAAUAUUACGCGUG | -0.594 ± 0.11 | -1.47 ± 0.1
CGGCAGCAAUAUUACGCUGA | -2.17 ± 0.23 | -3.18 ± 0.17
CGGCAGCAAUAUUACGCUUU | -1.62 ± 0.13 | -2.9 ± 0.2
CGGCAGCAAUAUUACGGAAC | -3.76 ± 0.33 | -2.88 ± 0.16
CGGCAGCAAUAUUACGGAAU | -1.42 ± 0.13 | -5.35 ± 0.41
CGGCAGCAAUAUUACGGUAA | -2.33 ± 0.13 | -2.56 ± 0.13
CGGCAGCAAUAUUACGUAAA | -1.84 ± 0.12 | -2.71 ± 0.12
CGGCAGCAAUAUUACGUACG | -1.31 ± 0.16 | -3.05 ± 0.17
CGGCAGCAAUAUUACGUCCA | -0.521 ± 0.14 | -0.34 ± 0.1
CGGCAGCAAUAUUACGUGAA | -1.65 ± 0.15 | -2.25 ± 0.11
CGGCAGCAAUAUUACGUGAU | -1.57 ± 0.13 | -3.11 ± 0.12
CGGCAGCAAUAUUACGUGGC | -2.02 ± 0.23 | -3.19 ± 0.33
CGGCAGCAAUAUUACGUUCG | -1.23 ± 0.16 | 
